Source: US7354734B2, “Fungal proteins and nucleic acids encoding same” (priority 2003, dated 2008)
Entries after “also recorded” stand apart in the source; their conditions may differ.

B1: Cytosolic porcine kidney aminopeptidase: cytosolic leucine aminopeptidase from porcine kidney, Sigma (protein, UniProt P28839 1-519, looked up)
Cytosol aminopeptidase: MFLLPLPAAARVAVRQLSVRRFWGPGPDAANMTKGLVLGIYSKEKEDDAPQFTSAGENFDKLVSGKLREILNISGPPLKAGKTRTFYGLHEDFSSVVVVGLGKKGAGVDDQENWHEGKENIRAAVAAGCRQIQDLEIPSVEVDPCGDAQAAAEGAVLGLYEYDELKQKKKVVVSAKLHGSGDQEAWQRGVLFASGQNLARHLMETPANEMTPTRFAEVIEKNLKSASSKTDVHIRPKSWIEEQEMGSFLSVAKGSEEPPVFLEIHYKGSPDASDPPLVFVGKGITFDSGGISIKASANMDLMRADMGGAATICSTIVSAAKLDLPINLVGLAPLCENMPSGKANKPGDVVRAKNGKTIQVDNTDAEGRLILADALCYAHTFNPKVIINAATLTGAMDIALGSGATGVFTNSSWLWNKLFEASIETGDRVWRMPLFEHYTKQIVDCQLADVNNIGKYRSAGACTAAAFLKEFVTHPKWAHLDIAGVMTNKDEVPYLRKGMAGRPTRTLIEFLLRFSQDSA
B2: fuLAP1: A. fumigatus leucine aminopeptidase, 388 amino acid residues (SEQ ID NO: 12) (protein, listed as Aspergillus fumigatus)
chain: MKVLTAIALSAIAFTGAVAAVITQEAFLNNPRIHHDQEKYLIELAPYRTRWVTEEEKWALKLDGVNFIDITEEHNTGFYPTLHSASYVKYPPKMQYAEEVAALNKNLSKENMKANLERFTSFHTRYYKSQTGIRSATWLFDQVQRVVSESGAAEYGATVERFSHPWGQFSIIARIPGRTNKTVVLGAHQDSINLFLPSILAAPGADDDGSGTVTILEALRGLLQSDAIAKGNASNTVEFHWYSAEEGGMLGSQAIFSNYKRNRREIKAMLQQDMTGYVQGALNAGVEEAIGIMVDYVDQGLTQFLKDVVTAYCSVGYLETKCGYACSDHTSASKYGYPAAMATEAEMENTNKKIHTTDDKIKYLSFDHMLEHAKLSLGFAFELAFAPF
B3: fuLAP2: A. fumigatus leucine aminopeptidase, 498 amino acid residues (SEQ ID NO: 9) (protein, listed as Aspergillus fumigatus)
chain: MKLLYLTSFASLAVANGPGWDWKPRVHPKVLPQMIHLWDLLQGAQQLEDFAYAYPERNRVFGGRAHEDTVNYLYRELKKTGYYDVYKQPQVHQWTRADQALTVDGQSYDATTMTYSPSVNATAPLAVVNNLGCVEADYPADLTGKIALISRGECTFATKSVLSAKAGAAAALVYNNIEGSMAGTLGGATSELGAYAPIAGISLADGQALIQMIQAGTVTANLWIDSQVENRTTYNVIAQTKGGDPNNVVALGGHTDSVEAGPGINDDGSGIISNLVVAKALTRFSVKNAVRFCFWTAEEFGLLGSNYYVNSLNATEQAKIRLYLNFDMIASPNYALMIYDGDGSAFNLTGPAGSAQIERLFEDYYTSIRKPFVPTEFNGRSDYQAFILNGIPAGGLFTGAEAIKTEEQAQLFGGQAGVALDANYHAKGDNMTNLNREAFLINSRATAFAVATYANSLDSIPPRNMTTVVKRSQLEQAMKRTPHTHTGGTGCYKDRVEQ

How the values were obtained:
[1] = system: gliadin 33mer (fragment 57-89 of gliadin MM1); assay: Digestion of gliadin 33mer (RP-HPLC, ESI-MS); format: biochemical, wheat; details: 37° C.
[2] = format: biochemical; details: for hydrolytic activity toward Ala-AMC in comparison to Leu-MCA used as a standard: substrate Ala-AMC 5 mM; for hydrolytic activity toward Ala-AMC in comparison to Leu-MCA used as a standard / hydrolytic activity toward Arg-AMC in comparison to Leu-MCA used as a standard / hydrolytic activity toward Asn-AMC in comparison to Leu-MCA used as a standard / hydrolytic activity toward Asp-AMC in comparison to Leu-MCA used as a standard / hydrolytic activity toward Cys-AMC in comparison to Leu-MCA used as a standard / hydrolytic activity toward Gln-AMC in comparison to Leu-MCA used as a standard / hydrolytic activity toward Glu-AMC in comparison to Leu-MCA used as a standard / hydrolytic activity toward Gly-AMC in comparison to Leu-MCA used as a standard / hydrolytic activity toward Gly-Pro-AMC in comparison to Leu-MCA used as a standard / hydrolytic activity toward His-AMC in comparison to Leu-MCA used as a standard / hydrolytic activity toward Hyp-AMC in comparison to Leu-MCA used as a standard / hydrolytic activity toward Ile-AMC in comparison to Leu-MCA used as a standard / hydrolytic activity toward Leu-AMC in comparison to Leu-MCA used as a standard / hydrolytic activity toward Lys-AMC in comparison to Leu-MCA used as a standard / hydrolytic activity toward Met-AMC in comparison to Leu-MCA used as a standard / hydrolytic activity toward Phe-AMC in comparison to Leu-MCA used as a standard / hydrolytic activity toward Pro-AMC in comparison to Leu-MCA used as a standard / hydrolytic activity toward Pyr-AMC in comparison to Leu-MCA used as a standard / hydrolytic activity toward Ser-AMC in comparison to Leu-MCA used as a standard / hydrolytic activity toward Thr-AMC in comparison to Leu-MCA used as a standard / hydrolytic activity toward Val-AMC in comparison to Leu-MCA used as a standard: 37° C., 60 min; for hydrolytic activity toward Arg-AMC in comparison to Leu-MCA used as a standard: substrate Arg-AMC 5 mM; for hydrolytic activity toward Asn-AMC in comparison to Leu-MCA used as a standard: substrate Asn-AMC 5 mM; for hydrolytic activity toward Asp-AMC in comparison to Leu-MCA used as a standard: substrate Asp-AMC 5 mM; for hydrolytic activity toward Cys-AMC in comparison to Leu-MCA used as a standard: substrate Cys-AMC 5 mM; for hydrolytic activity toward Gln-AMC in comparison to Leu-MCA used as a standard: substrate Gln-AMC 5 mM; for hydrolytic activity toward Glu-AMC in comparison to Leu-MCA used as a standard: substrate Glu-AMC 5 mM; for hydrolytic activity toward Gly-AMC in comparison to Leu-MCA used as a standard: substrate Gly-AMC 5 mM; for hydrolytic activity toward Gly-Pro-AMC in comparison to Leu-MCA used as a standard: substrate Gly-Pro-AMC 5 mM; for hydrolytic activity toward His-AMC in comparison to Leu-MCA used as a standard: substrate His-AMC 5 mM; for hydrolytic activity toward Hyp-AMC in comparison to Leu-MCA used as a standard: substrate Hyp-AMC 5 mM; for hydrolytic activity toward Ile-AMC in comparison to Leu-MCA used as a standard: substrate Ile-AMC 5 mM; for hydrolysis of Leu-AMC: substrate Leu-AMC; for hydrolytic activity toward Leu-AMC in comparison to Leu-MCA used as a standard: substrate Leu-AMC 5 mM; for hydrolytic activity toward Lys-AMC in comparison to Leu-MCA used as a standard: substrate Lys-AMC 5 mM; for hydrolytic activity toward Met-AMC in comparison to Leu-MCA used as a standard: substrate Met-AMC 5 mM; for hydrolytic activity toward Phe-AMC in comparison to Leu-MCA used as a standard: substrate Phe-AMC 5 mM; for hydrolytic activity toward Pro-AMC in comparison to Leu-MCA used as a standard: substrate Pro-AMC 5 mM; for hydrolytic activity toward Pyr-AMC in comparison to Leu-MCA used as a standard: substrate Pyr-AMC 5 mM; for hydrolytic activity toward Ser-AMC in comparison to Leu-MCA used as a standard: substrate Ser-AMC 5 mM; for hydrolytic activity toward Thr-AMC in comparison to Leu-MCA used as a standard: substrate Thr-AMC 5 mM; for hydrolytic activity toward Val-AMC in comparison to Leu-MCA used as a standard: substrate Val-AMC 5 mM
[3] = format: biochemical; details: substrate Lys(Abz)Pro-PropNA 5 mM, 37° C., 60 min

Molecule | hydrolytic activity toward Ala-AMC in comparison to Leu-MCA used as a standard [2] [%] | hydrolytic activity toward Arg-AMC in comparison to Leu-MCA used as a standard [2] [%] | hydrolytic activity toward Asn-AMC in comparison to Leu-MCA used as a standard [2] [%] | hydrolytic activity toward Asp-AMC in comparison to Leu-MCA used as a standard [2] [%] | hydrolytic activity toward Cys-AMC in comparison to Leu-MCA used as a standard [2] [%] | hydrolytic activity toward Gln-AMC in comparison to Leu-MCA used as a standard [2] [%] | hydrolytic activity toward Glu-AMC in comparison to Leu-MCA used as a standard [2] [%] | hydrolytic activity toward Gly-AMC in comparison to Leu-MCA used as a standard [2] [%] | hydrolytic activity toward Gly-Pro-AMC in comparison to Leu-MCA used as a standard [2] [%] | hydrolytic activity toward His-AMC in comparison to Leu-MCA used as a standard [2] [%] | hydrolytic activity toward Hyp-AMC in comparison to Leu-MCA used as a standard [2] [%] | hydrolytic activity toward Ile-AMC in comparison to Leu-MCA used as a standard [2] [%] | hydrolysis of Leu-AMC [2] | hydrolytic activity toward Leu-AMC in comparison to Leu-MCA used as a standard [2] [%] | hydrolytic activity toward Lys-AMC in comparison to Leu-MCA used as a standard [2] [%] | hydrolytic activity toward Met-AMC in comparison to Leu-MCA used as a standard [2] [%] | hydrolytic activity toward Phe-AMC in comparison to Leu-MCA used as a standard [2] [%] | hydrolytic activity toward Pro-AMC in comparison to Leu-MCA used as a standard [2] [%] | hydrolytic activity toward Pyr-AMC in comparison to Leu-MCA used as a standard [2] [%] | hydrolytic activity toward Ser-AMC in comparison to Leu-MCA used as a standard [2] [%] | also measured
B1 |  |  |  |  |  |  |  |  |  |  |  |  |  |  |  |  |  |  |  |  | digestion of gliadin 33mer, enzyme alone [1]: totally inactive
B2 | 4.7 | 53.9 | 29.4 | 0.8 | 5.0 | 44.9 | 0.0 | 0.8 | 5.4 | 0.8 | 3.9 | 13.2 | efficiently hydrolyzed; also recorded: common preference | 100.0 | 7.7 | 116.9 | 163.7 | 12.0 | 0.0 | 10.3 | hydrolytic activity toward Arg-AMC ([2]; compared to Leu-AMC): appreciated; hydrolytic activity toward Phe-AMC ([2]; compared to Leu-AMC): appreciated; hydrolytic activity toward Val-AMC ([2]; compared to Leu-AMC): appreciated; hydrolytic activity toward Thr-AMC in comparison to Leu-MCA used as a standard [2]: 5.1%; hydrolytic activity toward Val-AMC in comparison to Leu-MCA used as a standard [2]: 27.6%; hydrolytic activity toward Lys(Abz)Pro-PropNA in comparison to Leu-MCA used as a standard [3]: 0.0%
B3 | 11.7 | 2.3 | 73.5 | 0.3 | 2.1 | 37.0 | 1.1 | 2.2 | 74.1 | 1.9 | 13.3 | 1.8 | efficiently hydrolyzed; also recorded: common preference | 100.0 | 2.3 | 89.5 | 8.9 | 7.4 | 0.0 | 10.3 | digestion of gliadin 33mer, mixed with ruDPPIV ([1]; enzyme plus ruDPPIV (DPPIV)): same HPLC pattern; hydrolytic activity toward Thr-AMC in comparison to Leu-MCA used as a standard [2]: 0.1%; hydrolytic activity toward Val-AMC in comparison to Leu-MCA used as a standard [2]: 0.8%; hydrolytic activity toward Lys(Abz)Pro-PropNA in comparison to Leu-MCA used as a standard [3]: 0.0%
